One may read the Kd as the constant that tells how readily two partners part at equilibrium. A lower Kd goes with tighter binding.

In assay [1] the target is T1, Human CD3εδ heterodimeric Fc fusion (Hu CD3εδ Fc) (human).
T1 chain 1: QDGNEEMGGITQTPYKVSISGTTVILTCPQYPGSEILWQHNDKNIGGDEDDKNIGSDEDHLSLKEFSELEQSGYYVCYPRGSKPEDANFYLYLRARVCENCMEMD
T1 chain 2: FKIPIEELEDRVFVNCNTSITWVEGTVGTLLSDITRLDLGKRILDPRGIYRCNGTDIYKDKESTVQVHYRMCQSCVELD
As to the kind of experiment: IgG, avid; method not named at the table (ForteBio BLI in Methods).

The target in assay [2] is T2, Cynomolgus CD3εδ heterodimeric Fc fusion (Cy CD3εδ Fc) (cynomolgus).
T2 chain 1: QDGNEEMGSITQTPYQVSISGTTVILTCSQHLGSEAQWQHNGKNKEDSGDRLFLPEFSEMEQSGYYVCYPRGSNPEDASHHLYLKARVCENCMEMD
T2 chain 2: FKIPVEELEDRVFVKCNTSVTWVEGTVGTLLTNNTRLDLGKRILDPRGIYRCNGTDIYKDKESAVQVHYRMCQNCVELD
The assay is described as above.

B1: ADI-22523 IgG1 (antibody, V domains shown)
VH: QVQLVQSGAEVKKPGASVKVSCKASGFNIKDYYMHWVRQAPGQRLEWMGWIDLENGNTIYDPKFQGRVTITRDTSASTAYMELSSLRSEDTAVYYCARDGYGRYFYDVWGQGTLVTVSS
VL: DIVMTQSPDSLAVSLGERATINCKSSQSLLNSRTGKNYLAWYQQKPGQPPKLLIYWASTRESGVPDRFSGSGSGTDFTLTISSLQAEDVAVYYCKQSYSRRTFGGGTKVEIK
On to B1, for which the Kd in assay [1] amounted to 0.2 nM; in assay [2], 0.22 nM.

B2: ADI-26913 IgG1 (antibody, V domains shown)
VH: QVQLVQSGAEVKKPGASVKVSCKASGFNIKDYYMHWVRQAPGQRLEWMGWIDLENANTIYDAKFQGRVTITRDTSASTAYMELSSLRSEDTAVYYCARDQYGRYFYDVWGQGTLVTVSS
VL: DIVMTQSPDSLAVSLGERATINCKSSQSLLNARTGKNYLAWYQQKPGQPPKLLIYWASTRESGVPDRFSGSGSGTDFTLTISSLQAEDVAVYYCKQSYSRRTFGGGTKVEIK
As for B2, the figures for the Kd in assay [1] and in assay [2] were 2.2 nM and 0.4 nM, respectively.

B3: ADI-26908 IgG1 (antibody, V domains shown)
VH: QVQLVQSGAEVKKPGASVKVSCKASGFNIKDYYMHWVRQAPGQRLEWMGWIDLEEGNTIYDAKFQGRVTITRDTSASTAYMELSSLRSEDTAVYYCARDAYGRYFYDVWGQGTLVTVSS
VL: DIVMTQSPDSLAVSLGERATINCKSSQSLLNARTGKNYLAWYQQKPGQPPKLLIYWASTRESGVPDRFSGSGSGTDFTLTISSLQAEDVAVYYCKQSYSRRTFGGGTKVEIK
Turning to B3, the Kd in assay [1] stood at 1.5 nM; in assay [2], 0.31 nM.

B4: ADI-26906 IgG1 (antibody, V domains shown)
VH: QVQLVQSGAEVKKPGASVKVSCKASGFNIKDYYMHWVRQAPGQRLEWMGWIDLENANTIYDAKFQGRVTITRDTSASTAYMELSSLRSEDTAVYYCARDAYGRYFYDVWGQGTLVTVSS
VL: DIVMTQSPDSLAVSLGERATINCKSSQSLLNARTGKNYLAWYQQKPGQPPKLLIYWASTRESGVPDRFSGSGSGTDFTLTISSLQAEDVAVYYCKQSYSRRTFGGGTKVEIK
B4: the Kd in assay [1] turned out to be 1.6 nM; in assay [2], 0.25 nM.

B5: ADI-26915 IgG1 (antibody, V domains shown)
VH: QVQLVQSGAEVKKPGASVKVSCKASGFNIKDYYMHWVRQAPGQRLEWMGWIDLEEGNTIYDAKFQGRVTITRDTSASTAYMELSSLRSEDTAVYYCARDVLGRYFYDVWGQGTLVTVSS
VL: DIVMTQSPDSLAVSLGERATINCKSSQSLLNARTGKNYLAWYQQKPGQPPKLLIYWASTRESGVPDRFSGSGSGTDFTLTISSLQAEDVAVYYCKQSYSRRTFGGGTKVEIK
Consider B5, for which the results for the Kd in assay [1] and in assay [2] were 3.3 nM and 2.6 nM, respectively.
